Experimental data taken from patent US20250011424A1 (SALVARX, published 2025).

Experiments:
[1] = molecular target: T1, Human RAGE (human, UniProt Q15109 23-404); experiment: flow cytometry on human colorectal cancer samples
T1 construct: also called receptor for advanced glycation end products; AGER

[2] = molecular target: T2, V-C1-C2 construct of human RAGE (human, UniProt Q15109 23-404); experiment: binding to cells expressing RAGE domain constructs fused to eGFP
T2 construct: also called ABC construct; not shown: eGFP of the vector pEGFP-N2, fused in frame at the C-terminus
T2 sequence (Q15109 23-404): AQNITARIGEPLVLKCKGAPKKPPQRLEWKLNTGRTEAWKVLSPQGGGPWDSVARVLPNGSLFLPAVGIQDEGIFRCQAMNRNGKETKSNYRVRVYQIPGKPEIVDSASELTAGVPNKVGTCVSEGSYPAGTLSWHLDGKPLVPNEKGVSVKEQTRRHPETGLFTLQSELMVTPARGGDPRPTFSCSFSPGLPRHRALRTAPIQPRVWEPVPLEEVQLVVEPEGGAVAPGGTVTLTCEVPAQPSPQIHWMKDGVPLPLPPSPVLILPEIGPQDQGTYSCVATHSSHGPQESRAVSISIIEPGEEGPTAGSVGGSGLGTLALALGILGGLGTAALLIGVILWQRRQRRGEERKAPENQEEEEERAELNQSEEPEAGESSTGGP
Description: The extracellular portion of the RAGE protein contains three domains with similarities to the IgG family. The three domains are V, C1, and C2 (variable, constant 1, and constant 2, respectively). RS07 binds the V domain while RS15 binds an integrated V-C1 domain (FIG. 2B). RAGE constructs used in the present exemplary embodiment include a V-C1-C2 construct starting at amino acid 23 of SEQ ID NO:1 (AQNITA . . . ), immediately following the native signal sequence. The C1-C2 construct starts at amino acid 117 of SEQ ID NO:1 (VYQIPG . . . ), and the C2 construct starts at amino acid 249 of SEQ ID NO:1 (VAPGG . . . ). Domains were predicted on Genbank and by crystal structure. To map antibody binding to individual RAGE domains, the IL2 signal sequence was cloned into pEGFP-N2, into which portions of RAGE were cloned in-frame with IL2 signal sequence (IL2ss) at the 5′ end and in-frame with eGFP at the 3′ end. In addition to the extracellular portions of RAGE, all constructs contain the RAGE transmembrane and C-terminal regions, so the GFP signal should be intracellular, while the IL2ss ensures the RAGE V, C1, and/or C2 motifs are extracellular, and accessible to antibodies. The ABC construct in FIG. 2B includes the V, C1, and C2 domains, and initiates at aa 23 of SEQ ID NO: 1. The BC construct in FIG. 2B includes the C1 and C2 domains, and initiates at aa 116 of SEQ ID NO: 1. […]

T1 sequence (Q15109 23-404): as above

binding result [1]: binds
binding result [2]: binds
B1: RS15 (antibody, V domains shown)
VH: QVQLQQSGAELVRPGTSLKVSCKASGYAFTNYLIEWVNQRPGQGLEWIGVINPGSGGTHYNEKFKGKATLTADKSSSTAYMQLSSLTSDDSAIYFCARSRAVRAMDYWGQGTSVTV
VL: DIVMTQSQKFMSTSVGDRVSVTCKASQNVGTNVAWYQQKPGQSPKSLIYSASYRYSGVPDRFTGSGSGTDFTLTISNVQSEDLAEYFCQQYNSYFFTFGAGTKLELKR
notes: Mouse monoclonal IgG from a hybridoma (BALB/c immunised with human RAGE extracellular domain); also called RFT01; anti-RAGE (RS15)
